Assay results as given in the supplement of paper PMC9112550, “Optimization of the antimicrobial peptide Bac7 by deep mutational scanning” (BMC Biology, 2022).

Tested on: Escherichia coli TOP10
Assay: shrunken log2 fold change of peptide-encoding DNA abundance (4.5 h post-induction vs induction); higher = less antimicrobial activity (less host growth inhibition)
Settings: time post-induction: 4.5 h; library: site-saturation at positions 5, 18, 19, 20
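Also: peptides expressed intracellularly from a pBAD plasmid library in pooled LB shake-flask culture, induced with 0.3% L-arabinose, DNA abundance read by NGS, three biological replicates, DESeq2 with apeglm shrinkage.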

Row | Sequence | shrunken log2 fold change
1 | RRIRMRPPRLPRPRPRPIMSPRP | 0.0205
2 | RRIRMRPPRLPRPRPRPINKPRP | -0.375
3 | RRIRMRPPRLPRPRPRPIPKPRP | 0.0362
4 | RRIRMRPPRLPRPRPRPIPLPRP | 0.00552
5 | RRIRMRPPRLPRPRPRPIPPPRP | 0.369
6 | RRIRMRPPRLPRPRPRPIPQPRP | 0.256
7 | RRIRMRPPRLPRPRPRPIQPPRP | 0.122
8 | RRIRMRPPRLPRPRPRPIRSPRP | -0.0819
9 | RRIRMRPPRLPRPRPRPISAPRP | 0.0396
10 | RRIRMRPPRLPRPRPRPITCPRP | -0.0534
11 | RRIRMRPPRLPRPRPRPITKPRP | 0.0745
12 | RRIRMRPPRLPRPRPRPITQPRP | -0.00846
13 | RRIRMRPPRLPRPRPRPIVCPRP | -0.0438
14 | RRIRMRPPRLPRPRPRPIWGPRP | 0.0405
15 | RRIRMRPPRLPRPRPRPIWIPRP | 0.14
16 | RRIRMRPPRLPRPRPRPIWMPRP | -0.101
17 | RRIRMRPPRLPRPRPRPKADPRP | 2.35
18 | RRIRMRPPRLPRPRPRPKCHPRP | 0.335
19 | RRIRMRPPRLPRPRPRPKDQPRP | 2.28
20 | RRIRMRPPRLPRPRPRPKEKPRP | 0.0504
21 | RRIRMRPPRLPRPRPRPKELPRP | 0.642
22 | RRIRMRPPRLPRPRPRPKEPPRP | -0.074

Row | Sequence | shrunken log2 fold change
23 | RRIRMRPPRLPRPRPRPKEQPRP | 1.26
24 | RRIRMRPPRLPRPRPRPKFLPRP | 0.192
25 | RRIRMRPPRLPRPRPRPKHIPRP | -0.0498
26 | RRIRMRPPRLPRPRPRPKIAPRP | 0.244
27 | RRIRMRPPRLPRPRPRPKIMPRP | -0.208
28 | RRIRMRPPRLPRPRPRPKLKPRP | 2.65
29 | RRIRMRPPRLPRPRPRPKLSPRP | 0.982
30 | RRIRMRPPRLPRPRPRPKMMPRP | 0.351
31 | RRIRMRPPRLPRPRPRPKNAPRP | 0.901
32 | RRIRMRPPRLPRPRPRPKNGPRP | 0.0732
33 | RRIRMRPPRLPRPRPRPKNMPRP | -0.0276
34 | RRIRMRPPRLPRPRPRPKPTPRP | 0.266
35 | RRIRMRPPRLPRPRPRPKQVPRP | 0.0554
36 | RRIRMRPPRLPRPRPRPKRDPRP | 1.15
37 | RRIRMRPPRLPRPRPRPKSSPRP | 0.763
38 | RRIRMRPPRLPRPRPRPKTHPRP | 0.612
39 | RRIRMRPPRLPRPRPRPKTLPRP | 0.687
40 | RRIRMRPPRLPRPRPRPKTNPRP | 0.864
41 | RRIRMRPPRLPRPRPRPKVIPRP | -0.259
42 | RRIRMRPPRLPRPRPRPKWAPRP | 0.0251
43 | RRIRMRPPRLPRPRPRPKWKPRP | 0.195
44 | RRIRMRPPRLPRPRPRPKWVPRP | 0.466

Row | Sequence | shrunken log2 fold change
45 | RRIRMRPPRLPRPRPRPKYCPRP | 0.0472
46 | RRIRMRPPRLPRPRPRPLCDPRP | 1.11
47 | RRIRMRPPRLPRPRPRPLDVPRP | 0.287
48 | RRIRMRPPRLPRPRPRPLEQPRP | 0.446
49 | RRIRMRPPRLPRPRPRPLETPRP | 2.02
50 | RRIRMRPPRLPRPRPRPLFYPRP | -0.305
51 | RRIRMRPPRLPRPRPRPLGPPRP | 0.716
52 | RRIRMRPPRLPRPRPRPLGVPRP | 0.8
53 | RRIRMRPPRLPRPRPRPLHGPRP | 0.108
54 | RRIRMRPPRLPRPRPRPLIGPRP | -0.0325
55 | RRIRMRPPRLPRPRPRPLIPPRP | -0.0413
56 | RRIRMRPPRLPRPRPRPLLKPRP | 2.7
57 | RRIRMRPPRLPRPRPRPLLQPRP | 0.616
58 | RRIRMRPPRLPRPRPRPLPYPRP | 0.0635
59 | RRIRMRPPRLPRPRPRPLQFPRP | 0.388
60 | RRIRMRPPRLPRPRPRPLSYPRP | 0.134
61 | RRIRMRPPRLPRPRPRPLVMPRP | 0.0504
62 | RRIRMRPPRLPRPRPRPLVQPRP | 0.199
63 | RRIRMRPPRLPRPRPRPLWCPRP | 0.147
64 | RRIRMRPPRLPRPRPRPLWKPRP | 0.0435
65 | RRIRMRPPRLPRPRPRPLWMPRP | 0.0202
66 | RRIRMRPPRLPRPRPRPLYMPRP | -0.222

Row | Sequence | shrunken log2 fold change
67 | RRIRMRPPRLPRPRPRPLYRPRP | -0.0998
68 | RRIRMRPPRLPRPRPRPMDQPRP | -0.0516
69 | RRIRMRPPRLPRPRPRPMEEPRP | 2.45
70 | RRIRMRPPRLPRPRPRPMEWPRP | 0.379
71 | RRIRMRPPRLPRPRPRPMEYPRP | 0.0305
72 | RRIRMRPPRLPRPRPRPMGGPRP | 0.131
73 | RRIRMRPPRLPRPRPRPMGLPRP | 0.0299
74 | RRIRMRPPRLPRPRPRPMHTPRP | 3.3
75 | RRIRMRPPRLPRPRPRPMHWPRP | -0.0799
76 | RRIRMRPPRLPRPRPRPMIKPRP | -0.262
77 | RRIRMRPPRLPRPRPRPMIPPRP | -0.448
78 | RRIRMRPPRLPRPRPRPMLLPRP | 0.0485
79 | RRIRMRPPRLPRPRPRPMLYPRP | 0.0885
80 | RRIRMRPPRLPRPRPRPMNDPRP | 0.25
81 | RRIRMRPPRLPRPRPRPMNEPRP | -0.101
82 | RRIRMRPPRLPRPRPRPMNKPRP | -0.0775
83 | RRIRMRPPRLPRPRPRPMPMPRP | 0.194
84 | RRIRMRPPRLPRPRPRPMQGPRP | 0.4
85 | RRIRMRPPRLPRPRPRPMRPPRP | 1.79
86 | RRIRMRPPRLPRPRPRPMRQPRP | -0.0415
87 | RRIRMRPPRLPRPRPRPMRWPRP | 0.539
88 | RRIRMRPPRLPRPRPRPMSDPRP | -0.095

Row | Sequence | shrunken log2 fold change
89 | RRIRMRPPRLPRPRPRPMSIPRP | -0.0109
90 | RRIRMRPPRLPRPRPRPMSYPRP | -0.175
91 | RRIRMRPPRLPRPRPRPMWPPRP | 0.0917
92 | RRIRMRPPRLPRPRPRPMWTPRP | 0.038
93 | RRIRMRPPRLPRPRPRPMYKPRP | -0.472
94 | RRIRMRPPRLPRPRPRPMYVPRP | 0.115
95 | RRIRMRPPRLPRPRPRPNAFPRP | 0.344
96 | RRIRMRPPRLPRPRPRPNAPPRP | -0.0273
97 | RRIRMRPPRLPRPRPRPNAWPRP | 0.774
98 | RRIRMRPPRLPRPRPRPNCKPRP | 0.102
99 | RRIRMRPPRLPRPRPRPNDMPRP | -0.204
100 | RRIRMRPPRLPRPRPRPNEFPRP | 0.0287
101 | RRIRMRPPRLPRPRPRPNFHPRP | -0.0453
102 | RRIRMRPPRLPRPRPRPNHRPRP | -0.113
103 | RRIRMRPPRLPRPRPRPNIEPRP | 0.219
104 | RRIRMRPPRLPRPRPRPNINPRP | -0.356
105 | RRIRMRPPRLPRPRPRPNKLPRP | -0.145
106 | RRIRMRPPRLPRPRPRPNMHPRP | -0.0148
107 | RRIRMRPPRLPRPRPRPNNHPRP | -0.178
108 | RRIRMRPPRLPRPRPRPNNIPRP | -0.564
109 | RRIRMRPPRLPRPRPRPNNPPRP | 0.395
